Patent US20010041346A1, “METHOD FOR ASSAYING COMPOUNDS AFFECTING SMOOTH MUSCLE CONTRACTILE STATE” (priority 1999, published 2001)

Target: T1, cGK from human saphenous vein smooth muscle cell lysates (Homo sapiens, UniProt Q13976)
T1 construct: from tissue; host or cells: frozen human saphenous vein, homogenized
T1 sequence (Q13976 1-671): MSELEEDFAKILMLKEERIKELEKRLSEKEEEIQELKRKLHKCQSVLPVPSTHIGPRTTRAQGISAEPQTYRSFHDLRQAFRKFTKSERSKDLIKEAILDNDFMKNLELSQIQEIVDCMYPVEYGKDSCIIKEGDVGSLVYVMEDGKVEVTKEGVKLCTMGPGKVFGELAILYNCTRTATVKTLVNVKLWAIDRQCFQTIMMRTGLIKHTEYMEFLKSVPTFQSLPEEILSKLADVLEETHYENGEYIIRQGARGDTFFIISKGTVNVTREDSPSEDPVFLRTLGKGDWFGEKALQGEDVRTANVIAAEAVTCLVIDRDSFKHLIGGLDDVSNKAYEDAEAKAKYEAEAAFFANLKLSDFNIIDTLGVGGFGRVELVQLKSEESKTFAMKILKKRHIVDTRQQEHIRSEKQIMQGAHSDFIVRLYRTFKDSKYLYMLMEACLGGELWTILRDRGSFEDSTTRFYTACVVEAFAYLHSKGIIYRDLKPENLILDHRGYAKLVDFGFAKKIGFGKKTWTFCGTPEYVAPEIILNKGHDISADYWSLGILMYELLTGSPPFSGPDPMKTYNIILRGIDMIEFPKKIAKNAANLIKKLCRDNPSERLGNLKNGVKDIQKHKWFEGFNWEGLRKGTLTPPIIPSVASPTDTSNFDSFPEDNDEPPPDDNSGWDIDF
Experiment: GST-fusion protein binding, immunoblot for cGK
Details: GST pulldown, immunoblotting with anti-cGK antibody
Procedure: Lysates were centrifuged for 15 minutes at 4° C. in a microfuge, and the supernatant was incubated with 100 μl of GST or GST-fusion protein beads overnight, followed by washing in RIPA buffer containing 1% NP40, and boiling for 5 minutes in SDS sample buffer. Associated proteins were resolved by SDS-PAGE and transferred to nitrocellulose, which was blocked in PBS with 0.05% Tween 20 and 5% milk. Primary antibody incubation with rabbit polyclonal anti-human cGPK-CT (Upstate Biotechnology, Lake Placid, N.Y.) was carried out at 1:2000 dilution and rabbit polyclonal anti-MBS antibody (Berkeley Antibody Company, Richmond, Calif.) at 1:1600 dilution in blocking buffer for one hour at room temperature, followed by secondary antibody incubation with anti-rabbit horseradish peroxidase-conjugated IgG (Amersham Life Science, Arlington Heights, Ill.) at 1:500 in blocking buffer. The membranes were developed with ECL (Amersham Life Science, Arlington Heights, Ill.).
The 586 base pair cDNA insert from AL9, the 177 base pair N-terminal cGK1α truncation mutant, cGK1α1-59, the N-terminal 274 base pairs of cGKIβ, and the N-terminal 816 base pairs of cGKII were cloned into pGEX (Pharmacia Biotech, Piscataway, N.J.). GST fusion proteins were expressed in bacterial strain BL21 (Stratagene, La Jolla, Calif.) according to standard techniques. […]

B1: MBS1-690: 690 amino acid N-terminal half of MBS (protein, UniProt O14974 1-690, looked up, fragment)
chain: MKMADAKQKRNEQLKRWIGSETDLEPPVVKRQKTKVKFDDGAVFLAACSSGDTDEVLKLLHRGADINYANVDGLTALHQACIDDNVDMVKFLVENGANINQPDNEGWIPLHAAASCGYLDIAEFLIGQGAHVGAVNSEGDTPLDIAEEEAMEELLQNEVNRQGVDIEAARKEEERIMLRDARQWLNSGHINDVRHAKSGGTALHVAAAKGYTEVLKLLIQAGYDVNIKDYDGWTPLHAAAHWGKEEACRILVDNLCDMEMVNKVGQTAFDVADEDILGYLEELQKKQNLLHSEKRDKKSPLIESTANMDNNQSQKTFKNKETLIIEPEKNASRIESLEQEKVDEEEEGKKDESSCSSEEDEEDDSESEAETDKTKPLASVTNANTSSTQAAPVAVTTPTVSSGQATPTSPIKKFPTTATKISPKEEERKDESPATWRLGLRKTGSYGALAEITASKEGQKEKDTAGVTRSASSPRLSSSLDNKEKEKDSKGTRLAYVAPTIPRRLASTSDIEEKENRDSSSLRTSSSYTRRKWEDDLKKNSSVNEGSTYHKSCSFGRRQDDLISSSVPSTTSTPTVTSAAGLQKSLLSSTSTTTKITTGSSSAGTQSSTSNRLWAEDSTEKEKDSVPTAVTIPVAPTVVNAAASTTTLTTTTAGTVSSTTEVRERRRSYLTPVRDEESESQRKARSRQAR
binding of cGK from smooth muscle cell lysates: no interaction with cGK
